Tested on: MS2 coat protein
Test: apparent KD of MS2 coat protein; designed switch direction (-1 OFF switch, 1 ON switch): -1; higher = weaker reporter binding
How it was run: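 SNAP-549-labelled MS2 coat protein was titrated, doubling from 0.7 or 1.5 nM to 3 µM, over designed RNA switches transcribed on Illumina chips by stalled E. coli RNA polymerase. Runs were done without input, with 200 uM small-molecule ligand, or with an oligonucleotide input. Apparent KD is the per-design median over clusters of curve-fitted normalised fluorescence.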

[1] = input ligand: microRNA oligo, concentration not stated
[2] = Eterna round: R95, input ligand: microRNA oligo, concentration not stated
[3] = Eterna round: R95, input ligand: FMN 200 uM
[4] = Eterna round: R95, input ligand: none

## AGAUCGUCAGGAUAUACAUGAGGAUCACCCAUGUGUAGUUCCAAUUGGACUACAACAUGUAGAAGGGACGAUCG [Exclusion 3 (MOD1 of #1 Marzena11)] (Eterna round: R97, puzzle: Exclusion 3)
Input ligand: FMN 200 uM
  apparent KD of MS2 coat protein: 1060 nM
Input ligand: none
  apparent KD of MS2 coat protein: 675 nM

## GUCCGGCAUGUAGGAUAUGGAUCCGAUUAGGAUUUAGAAGGACAUGAGGAUCACCCAUGUGCAUUUAAUUAGUCAUUACCGGAC [EXclNG1-LROPPY04] (Eterna round: R96, puzzle: Exclusion NG 1)
Input ligand: FMN 200 uM
  apparent KD of MS2 coat protein: 16.4 nM
[1]
  apparent KD of MS2 coat protein: 12.5 nM
Input ligand: none
  apparent KD of MS2 coat protein: 16.6 nM

## UUUCUACAUGUAGGAUAUGCGUGGCGAAGCUAUGCAGAAGGACAUGAGGAUCACCCAUGUUUUAGCGUCUGCGUACAGAUGCGU [JL ENG1 1.49] (Eterna round: R96, puzzle: Exclusion NG 1)
Input ligand: FMN 200 uM
  apparent KD of MS2 coat protein: 60.9 nM
[1]
  apparent KD of MS2 coat protein: 16.2 nM
Input ligand: none
  apparent KD of MS2 coat protein: 20.6 nM

## CAGUACUGAGGAUAUACAUGAGGAUCACCCAUGUGUCUUAUAUUAGGAAACUAGGUAUGUAGAAGGCAGUACUG [Omei Ex3 Mod of Eli 4.27 v4] (Eterna round: R97, puzzle: Exclusion 3)
Input ligand: FMN 200 uM
  apparent KD of MS2 coat protein: 304 nM
Input ligand: none
  apparent KD of MS2 coat protein: 62.1 nM

## UUGAAGUCAGGAUAUCGUUAAUUUAGUUGUUUGUAUUAGUUCGAGAAGGGACAUGAGGAUCACCCAUGUAAGUA [Ex4 #47] (Eterna round: R97, puzzle: Exclusion 4)
Input ligand: FMN 200 uM
  apparent KD of MS2 coat protein: 32.7 nM
Input ligand: none
  apparent KD of MS2 coat protein: 40.5 nM

## CCGCAAAUGUAGGAUAUCGUAUCGGAUACGAUACGAGAAGGGCAUACAUGAGGAUCACCCAUGUGUCCUAGCGG [Fiskers Ex 6 - 44] (puzzle: Exclusion 6)
[2]
  apparent KD of MS2 coat protein: 12 nM

## AUGAGGAUAAGAAAGUGAAGAUAGAGCGUACCUUAUGGAACAUGAGGAUCACCCAUGUAGCUUUUUGCUCGUCUUAU [JR_SV3TOV2_Sub031] (puzzle: Sensor v3, turn-off variant 2)
[3]
  apparent KD of MS2 coat protein: 19.9 nM
[2]
  apparent KD of MS2 coat protein: 49.5 nM
[4]
  apparent KD of MS2 coat protein: 14.7 nM

## CUUUUGUGAGGAUAUCAGUAGUAAAUAAUUAAAAUUACUACUGAGAAGGCACAUGAGGAUCACCCAUGUUCCUC [salish99_ex3_r3_080] (puzzle: Exclusion 4)
[2]
  apparent KD of MS2 coat protein: 40.3 nM

## UUAUUAUGUGUAGGAUAUGCAUAUUAUUAUUAUGCAGAAGGACAUGAGGAUCACCCAUGUAUAUUAUUAUUAUAUAUUAUAUAU [Title] (Eterna round: R96, puzzle: Exclusion NG 1)
[1]
  apparent KD of MS2 coat protein: 25.1 nM

## GGUGCGUUUGUGAGGAUAUGCUGGUCCUUGGUUCAGCAGAAGGCACAUGAGGAUCACCCAUGUGGUGUCGUACC [salish99_Bmod_Ex4_031] (puzzle: Brourd's mod of Exclusion 4)
[2]
  apparent KD of MS2 coat protein: 145 nM

## GCAGGCGUCUAGGCUCGUCUUAUUUUGAGAAGAUUGAUAACAUGAGGAUCACCCAUGUUUGUGGGAGAGUUGGAGUG [JR_SV3TOV2_Sub014] (puzzle: Sensor v3, turn-off variant 2)
[3]
  apparent KD of MS2 coat protein: 159 nM
[2]
  apparent KD of MS2 coat protein: 258 nM
[4]
  apparent KD of MS2 coat protein: 209 nM

## AGUACUAACACGAAAGUGUUAGUACAAUAAGCUAGUGGAACAUGAGGAUCACCCAUGUCCUCAUUAGCUCGUCUUAA [Mat - Sensor v3 - Turn-off var 2 - D34] (puzzle: Sensor v3, turn-off variant 2)
[3]
  apparent KD of MS2 coat protein: 14.2 nM
[2]
  apparent KD of MS2 coat protein: 29.2 nM
[4]
  apparent KD of MS2 coat protein: 15.5 nM

## AGCUUUUUGUUCGUCUUACACAUGAGGAUCACCCAUGUGUUGGACCGCAUCGAUAGAUGUAGACCGAGAAGCAUGGG [Omdei Mir OFFv1 C8] (Eterna round: R97, puzzle: Sensor, turn-off variant 1)
Input ligand: FMN 200 uM
  apparent KD of MS2 coat protein: 24.5 nM
Input ligand: none
  apparent KD of MS2 coat protein: 23.8 nM

## CAUUAGCAAGCGAGAUCCCACAUGAGGAUCACCCAUGUGCUCGUCUUAUAAGGUACUGUGACGAGAGUCACGGUACC [Mat - Sensor, turn-off var - Eli Mod - D42] (Eterna round: R97, puzzle: Sensor, turn-off variant 1)
Input ligand: FMN 200 uM
  apparent KD of MS2 coat protein: 15.2 nM
Input ligand: none
  apparent KD of MS2 coat protein: 16.1 nM

## UACCUAUAGUAAGGAUAUCAUUGCGAUUAGCUAUGAGAAGGUACACAUGAGGAUCACCCAUGUCCUCCAAUUAACCGAAAGGUA [7th something] (Eterna round: R96, puzzle: Exclusion NG 1)
Input ligand: FMN 200 uM
  apparent KD of MS2 coat protein: 318 nM
[1]
  apparent KD of MS2 coat protein: 170 nM
Input ligand: none
  apparent KD of MS2 coat protein: 178 nM

## ACAAGCUUUACGAUCCUCUACAUGAGGAUCACCCAUGUGCUCGUAUUGUUUAGUACUAUCACGAAAGUGAUAGUACA [Sensor, turn off variant 1 v.5] (Eterna round: R97, puzzle: Sensor, turn-off variant 1)
Input ligand: FMN 200 uM
  apparent KD of MS2 coat protein: 467 nM
Input ligand: none
  apparent KD of MS2 coat protein: 1090 nM

## CUCAAGUGAGGAUAUAUACUUCCAUCAUUUGAGAUAGAAGUAUAGAAGGCACAUGAGGAUCACCCAUGUAUAAC [Lamaanan] (puzzle: Exclusion 4)
[2]
  apparent KD of MS2 coat protein: 99.2 nM

## AGCCAAGCAGGAUAUACCCGGGAUAACAUGAGGAUCACCCAUGUGACCGAUUGAUGUCCUGUAGAAGGGCUUGGGA [Mod of ViennaUCT 21 - Jieux - Exclusion 5] (Eterna round: R97, puzzle: Exclusion 5)
Input ligand: FMN 200 uM
  apparent KD of MS2 coat protein: 78.1 nM
Input ligand: none
  apparent KD of MS2 coat protein: 28.3 nM

## GGGCUCGGAGGAUAUACAAUCUCGGGCUGAAAGGCUCGGGUACAUGAGGAUCACCCAUGUAGAAGGUCGGGCUC [-30.2, -27.6 kcal A 24%, 4bis,4] (Eterna round: R97, puzzle: Exclusion 2)
Input ligand: FMN 200 uM
  apparent KD of MS2 coat protein: 26 nM
Input ligand: none
  apparent KD of MS2 coat protein: 15.9 nM

## CUGGAGUCAGGAUAUGACGCAGUCCGCCCAAAGGGCGGAAAUCAGAAGGGACUUGAGGAUCACCCAAGUAAAAG [Gecear] (Eterna round: R97, puzzle: Exclusion 4)
Input ligand: FMN 200 uM
  apparent KD of MS2 coat protein: 28.8 nM
Input ligand: none
  apparent KD of MS2 coat protein: 31.4 nM

## UUAGCUCAAGUCAGGAUAUUAGAGGCUUGCCUAAAUAAGAAGGGACAUGAGGAUCACCCAUGUCUAUGCAUGUA [BmEX4 A.16] (Eterna round: R97, puzzle: Brourd's mod of Exclusion 4)
Input ligand: FMN 200 uM
  apparent KD of MS2 coat protein: 21.5 nM
Input ligand: none
  apparent KD of MS2 coat protein: 15.9 nM

## CUCGAGUGAGGAUAUAUACUUCCAUCAUUUGAGAGAGAAGUAUAGAAGGCACAUGAGGAUCACCCAUGUAUAAA [Rierreis] (puzzle: Exclusion 4)
[2]
  apparent KD of MS2 coat protein: 41.3 nM

## GCUUGUGGGCAAGGAUAUCCUGCGCUGUUCUGGUUCGUGUCUGUCACAUGAGGAUCACCCAUGUGGGAGAAGGUGCCUGUGGCG [Design 66] (Eterna round: R96, puzzle: Exclusion NG 2)
Input ligand: FMN 200 uM
  apparent KD of MS2 coat protein: 22 nM
[1]
  apparent KD of MS2 coat protein: 17.4 nM
Input ligand: none
  apparent KD of MS2 coat protein: 24.2 nM

## GUUUCACAUGAGGAUCACCCAUGUGAGGAUAUAAAUUUGUUAACCGUAGUUAAUAGAUUUAGAAGGCGCGUGAU [JR_Exc1_Sub001] (Eterna round: R97, puzzle: Exclusion 1)
Input ligand: FMN 200 uM
  apparent KD of MS2 coat protein: 68.2 nM
Input ligand: none
  apparent KD of MS2 coat protein: 63.1 nM

## CUUUUGUGAGGAUAUUCGUAGUAAAUGAAUAAAAUUAUUACGGAGAAGGCACAUGAGGAUCACCCAUGUUCCUU [Mat - Exclusion 4 - Eli Mod - D32] (Eterna round: R97, puzzle: Exclusion 4)
Input ligand: FMN 200 uM
  apparent KD of MS2 coat protein: 53.2 nM
Input ligand: none
  apparent KD of MS2 coat protein: 16.7 nM

## CUAGAUCUUCGGAUCUAGUACAUGAGGAUCACCCAUGUUACGAGCUGAUUUUCAUACAAGCUUUUUGCUCGUCUUAU [Sensor v3 - Turn-off variant 1 - 29] (puzzle: Sensor v3, turn-off variant 1)
[3]
  apparent KD of MS2 coat protein: 38.1 nM
[2]
  apparent KD of MS2 coat protein: 297 nM
[4]
  apparent KD of MS2 coat protein: 41.3 nM

## CACCGUUAGUGAGGAUAUAGUACAUGAGGAUCACCCAUGUAAUAAAUGAGAAUUUCGGAUGUAUGCUAGAAGGCACAAAUCGGC [Ostricism 51 - Jieux - Exclusion NG 2] (Eterna round: R96, puzzle: Exclusion NG 2)
[1]
  apparent KD of MS2 coat protein: 47.2 nM

## UUCCAUUCAGGAUAUCGAUGGAAUCACAUGAGGAUCACCCAUGUGAUACCUAGGUGACCGCGAGAAGGGAAAGGGU [EX5 B.7] (Eterna round: R97, puzzle: Exclusion 5)
Input ligand: FMN 200 uM
  apparent KD of MS2 coat protein: 13.8 nM
Input ligand: none
  apparent KD of MS2 coat protein: 12.9 nM

## GGGUAGUGAGGAUAUCGUUGUUAGGAGGAGAAGGUAGGAGGCGAGAAGGCACAUGAGGAUCACCCAUGUAUGAG [JR_Exclu4_Sub064] (puzzle: Exclusion 4)
[2]
  apparent KD of MS2 coat protein: 26.9 nM

## CAUGAUUGGCGAGGAUAUUGACCUAGUUCGCGACGAGAAGGCGCCUGUCACAUGAGGAUCACCCAUGUGAAUCUGGUGAAAGAG [Ex NG1 #91] (Eterna round: R96, puzzle: Exclusion NG 1)
Input ligand: FMN 200 uM
  apparent KD of MS2 coat protein: 14.5 nM
[1]
  apparent KD of MS2 coat protein: 11.4 nM
Input ligand: none
  apparent KD of MS2 coat protein: 20.3 nM

## UUUACAAGCUUAAGAUCCCACAUGAGGAUCACCCAUGUUGCUGCCGGUGACGGUAGCAUAACUUAUGCUCGUCUUAU [JL TOV1 3.60] (Eterna round: R97, puzzle: Sensor, turn-off variant 1)
Input ligand: FMN 200 uM
  apparent KD of MS2 coat protein: 177 nM
Input ligand: none
  apparent KD of MS2 coat protein: 188 nM

## GCCGGUCAUGUAGGAUAUGGCCGGCGGUGCCGGCCAGAAGGACAUGAGGAUCACCCAUGUGCCGGCCUUUGGCCGGCACCCGGC (Eterna round: R96, puzzle: Exclusion NG 1)
Input ligand: FMN 200 uM
  apparent KD of MS2 coat protein: 10.3 nM
[1]
  apparent KD of MS2 coat protein: 8.76 nM
Input ligand: none
  apparent KD of MS2 coat protein: 17.2 nM

## AAAAUGUGAGGAUAUCACGGAGCUCCGCGUGACGAAGCUCCUGAGAAGGCACAUGAGGAUCACCCAUGUCCUGU [EX4 A.30] (Eterna round: R97, puzzle: Exclusion 4)
Input ligand: FMN 200 uM
  apparent KD of MS2 coat protein: 296 nM
Input ligand: none
  apparent KD of MS2 coat protein: 54.4 nM

## CACCGUUACACAGGAUAUGUUACAUGAGGAUCACCCAUGUAAUAAAUGAGAAUUUCGAAUGUAAUACAGAAGGGUGGAAUCGGC [Ostricism 73 - Jieux - Exclusion NG 2] (Eterna round: R96, puzzle: Exclusion NG 2)
Input ligand: FMN 200 uM
  apparent KD of MS2 coat protein: 34.7 nM
[1]
  apparent KD of MS2 coat protein: 27.9 nM
Input ligand: none
  apparent KD of MS2 coat protein: 28.4 nM

Source: the supplement of paper PMC9170038
